Drawing on publication PMC11554844, “BEACH domain proteins function as cargo-sorting adaptors in secretory and endocytic pathways” (The Journal of Cell Biology, 2024), this text covers response for 15 variants.

B1: 3xFlag-EGFP-ALFY [human] / GST-CTLA4 (201–215) [human] (parent complex)
chain 1: MNMVKRIMGRPRQEECSPQDNALGLMHLRRLFTELCHPPRHMTQKEQEEKLYMMLPVFNRVFGNAPPNTMTEKFSDLLQFTTQVSRLMVTEIRRRASNKSTEAASRAIVQFLEINQSEEASRGWMLLTTINLLASSGQKTVDCMTTMSVPSTLVKCLYLFFDLPHVPEAVGGAQNELPLAERRGLLQKVFVQILVKLCSFVSPAEELAQKDDLQLLFSAITSWCPPYNLPWRKSAGEVLMTISRHGLSVNVVKYIHEKECLSTCVQNMQQSDDLSPLEIVEMFAGLSCFLKDSSDVSQTLLDDFRIWQGYNFLCDLLLRLEQAKEAESKDALKDLVNLITSLTTYGVSELKPAGITTGAPFLLPGFAVPQPAGKGHSVRNVQAFAVLQNAFLKAKTSFLAQIILDAITNIYMADNANYFILESQHTLSQFAEKISKLPEVQNKYFEMLEFVVFSLNYIPCKELISVSILLKSSSSYHCSIIAMKTLLKFTRHDYIFKDVFREVGLLEVMVNLLHKYAALLKDPTQALNEQGDSRNNSSVEDQKHLALLVMETLTVLLQGSNTNAGIFREFGGARCAHNIVKYPQCRQHALMTIQQLVLSPNGDDDMGTLLGLMHSAPPTELQLKTDILRALLSVLRESHRSRTVFRKVGGFVYITSLLVAMERSLSCPPKNGWEKVNQNQVFELLHTVFCTLTAAMRYEPANSHFFKTEIQYEKLADAVRFLGCFSDLRKISAMNVFPSNTQPFQRLLEEDVISIESVSPTLRHCSKLFIYLYKVATDSFDSRAEQIPPCLTSESSLPSPWGTPALSRKRHAYHSVSTPPVYPPKNVADLKLHVTTSSLQSSDAVIIHPGAMLAMLDLLASVGSVTQPEHALDLQLAVANILQSLVHTERNQQVMCEAGLHARLLQRCSAALADEDHSLHPPLQRMFERLASQALEPMVLREFLRLASPLNCGAWDKKLLKQYRVHKPSSLSYEPEMRSSMITSLEGLGTDNVFSLHEDNHYRISKSLVKSAEGSTVPLTRVKCLVSMTTPHDIRLHGSSVTPAFVEFDTSLEGFGCLFLPSLAPHNAPTNNTVTTGLIDGAVVSGIGSGERFFPPPSGLSYSSWFCIEHFSSPPNNHPVRLLTVVRRANSSEQHYVCLAIVLSAKDRSLIVSTKEELLQNYVDDFSEESSFYEILPCCARFRCGELIIEGQWHHLVLVMSKGMLKNSTAALYIDGQLVNTVKLHYVHSTPGGSGSANPPVVSTVYAYIGTPPAQRQIASLVWRLGPTHFLEEVLPSSNVTTIYELGPNYVGSFQAVCMPCKDAKSEGVVPSPVSLVPEEKVSFGLYALSVSSLTVARIRKVYNKLDSKAIAKQLGISSHENATPVKLIHNSAGHLNGSARTIGAALIGYLGVRTFVPKPVATTLQYVGGAAAILGLVAMASDVEGLYAAVKALVCVVKSNPLASKEMERIKGYQLLAMLLKKKRSLLNSHILHLTFSLVGTVDSGHETSIIPNSTAFQDLLCDFEVWLHAPYELHLSLFEHFIELLTESSEASKNAKLMREFQLIPKLLLTLRDMSLSQPTIAAISNVLSFLLQGFPSSNDLLRFGQFISSTLPTFAVCEKFVVMEINNEEKLDTGTEEEFGGLVSANLILLRNRLLDILLKLIYTSKEKTSINLQACEELVKTLGFDWIMMFMEEHLHSTTVTAAMRILVVLLSNQSILIKFKEGLSGGGWLEQTDSVLTNKIGTVLGFNVGRSAGGRSTVREINRDACHFPGFPVLQSFLPKHTNVPALYFLLMALFLQQPVSELPENLQVSVPVISCRSKQGCQFDLDSIWTFIFGVPASSGTVVSSIHNVCTEAVFLLLGMLRSMLTSPWQSEEEGSWLREYPVTLMQFFRYLYHNVPDLASMWMSPDFLCALAATVFPFNIRPYSEMVTDLDDEVGSPAEEFKAFAADTGMNRSQSEYCNVGTKTYLTNHPAKKFVFDFMRVLIIDNLCLTPASKQTPLIDLLLEASPERSTRTQQKEFQTYILDSVMDHLLAADVLLGEDASLPITSGGSYQVLVNNVFYFTQRVVDKLWQGMFNKESKLLIDFIIQLIAQSKRRSQGLSLDAVYHCLNRTILYQFSRAHKTVPQQVALLDSLRVLTVNRNLILGPGNHDQEFISCLAHCLINLHVGSNVDGFGLEAEARMTTWHIMIPSDIEPDGSYSQDISEGRQLLIKAVNRVWTELIHSKKQVLEELFKVTLPVNERGHVDIATARPLIEEAALKCWQNHLAHEKKCISRGEALAPTTQSKLSRVSSGFGLSKLTGSRRNRKESGLNKHSLSTQEISQWMFTHIAVVRDLVDTQYKEYQERQQNALKYVTEEWCQIECELLRERGLWGPPIGSHLDKWMLEMTEGPCRMRKKMVRNDMFYNHYPYVPETEQETNVASEIPSKQPETPDDIPQKKPARYRRAVSYDSKEYYMRLASGNPAIVQDAIVESSEGEAAQQEPEHGEDTIAKVKGLVKPPLKRSRSAPDGGDEENQEQLQDQIAEGSSIEEEEKTDNATLLRLLEEGEKIQHMYRCARVQGLDTSEGLLLFGKEHFYVIDGFTMTATREIRDIETLPPNMHEPIIPRGARQGPSQLKRTCSIFAYEDIKEVHKRRYLLQPIAVEVFSGDGRNYLLAFQKGIRNKVYQRFLAVVPSLTDSSESVSGQRPNTSVEQGSGLLSTLVGEKSVTQRWERGEISNFQYLMHLNTLAGRSYNDLMQYPVFPWILADYDSEEVDLTNPKTFRNLAKPMGAQTDERLAQYKKRYKDWEDPNGETPAYHYGTHYSSAMIVASYLVRMEPFTQIFLRLQGGHFDLADRMFHSVREAWYSASKHNMADVKELIPEFFYLPEFLFNSNNFDLGCKQNGTKLGDVILPPWAKGDPREFIRVHREALECDYVSAHLHEWIDLIFGYKQQGPAAVEAVNVFHHLFYEGQVDIYNINDPLKETATIGFINNFGQIPKQLFKKPHPPKRVRSRLNGDNAGISVLPGSTSDKIFFHHLDNLRPSLTPVKELKEPVGQIVCTDKGILAVEQNKVLIPPTWNKTFAWGYADLSCRLGTYESDKAMTVYECLSEWGQILCAICPNPKLVITGGTSTVVCVWEMGTSKEKAKTVTLKQALLGHTDTVTCATASLAYHIIVSGSRDRTCIIWDLNKLSFLTQLRGHRAPVSALCINELTGDIVSCAGTYIHVWSINGNPIVSVNTFTGRSQQIICCCMSEMNEWDTQNVIVTGHSDGVVRFWRMEFLQVPETPAPEPAEVLEMQEDCPEAQIGQEAQDEDSSDSEADEQSISQDPKDTPSQPSSTSHRPRAASCRATAAWCTDSGSDDSRRWSDQLSLDEKDGFIFVNYSEGQTRAHLQGPLSHPHPNPIEVRNYSRLKPGYRWERQLVFRSKLTMHTAFDRKDNAHPAEVTALGISKDHSRILVGDSRGRVFSWSVSDQPGRSAADHWVKDEGGDSCSGCSVRFSLTERRHHCRNCGQLFCQKCSRFQSEIKRLKISSPVRVCQNCYYNLQHERGSEDGPRNC
chain 2: YVKMPPTEPECEKQF

This test covers variants of B1. In words: GST pulldown, anti-flag western blot quantification; HeLa 3xFlag-EGFP-ALFY cell lysate; three independent experiments; read off a plot. In general terms: In western blotting, separated proteins are transferred to a membrane and probed.
For the variant chain 2 F15A, the response was ~1.1.
In the case of chain 2 E8A, the response is ~1.4.
With chain 2 P9A, the response is ~0.77.
The same measure for chain 2 P6A: ~0.67; for chain 2 E10A: ~1.2; for chain 2 K3A: ~0.55.
On to chain 2 K13A, for which the response is ~0.5.
On to chain 2 M4A, for which the response was ~1.6.
The result for chain 2 P5A reads ~0.87; that for chain 2 Y1A, ~1.4.
As for chain 2 Q14A, the response was ~0.68.
The result for chain 2 V2A reads ~1.7; that for chain 2 C11A, ~0.78.
As for chain 2 T7A, the response is ~1.5.
For the variant chain 2 E12A, the response was ~1.2.
